The record followed here is the nanobody polyreactivity screen of Harvey et al. (2022).

A short description of this data set: yeast display, Sf9 membrane polyspecificity reagent, FACS + sequencing; frameworks hold sequencing errors. The essentials: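 After 36–48 hours of galactose induction, yeast (Saccharomyces cerevisiae BJ5465) displaying a synthetic nanobody library were stained at 4 °C for 1 hour with 10% biotinylated, detergent-solubilized Sf9 membrane reagent. Streptavidin microbeads enriched the stained cells before FACS sorting into low and high (top ~1%) gates on anti-HA and streptavidin fluorescence. Each clone's polyreactivity label reflects its gate of origin.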
Regarding “QVQLVESCGGLVQAGGSLRLSCAASGSTFWKYVMGWYRQAPGKDRELVAAISGRGGSTYYADSVKGRFTISRDNAKNTVYLQMNSLKPEDTAVYYCAKVHTRRKPYNSWGQGTQVTVSS”, the “polyreactivity (PSR sort gate)” value was “high polyreactivity”. Consider “QVQLVESCGGLVQAGGSLRLSCAGSGITIYSYAMGWYRQAPGKERELVAAITLTGGTTYYADSVKGRFTISRDNAKNTVYLQMNSLKPEDTAVYYCNADYGGGVDGTYKYYSEYDYWGQGTQVTVSS”, for which the “polyreactivity (PSR sort gate)” value was “low polyreactivity”. “QVQLVESCGGLVQAGGSLRLSCASSGRNFPVKAMGWYRQAPGKERELVAGITWSGDGSTYYADSVKGRFTISRDNAKNTVYLLMNSLKPEDTAVYYCAARLNLQGRYDYWGQGTQVTVSS”: the “polyreactivity (PSR sort gate)” value is recorded as “low polyreactivity”. Consider “QVQLVESCGGLVQAGGSLRLSCPASGSIFHVNVMGCYRQEPGKERELVAAITYSGGATYYADSVKGRFTISRDNAKNTVYLQMNSLKPEDTAVYYCAAYPYWFFPHYDSWGQGTLVTVSS”, for which the “polyreactivity (PSR sort gate)” value is “low polyreactivity”. The result for “QVQLVESCGGLVQAGGSLRLSCSASGFIIPYYAMGWYRQAPGKERELVAAISYSGDSTYYADSVKGRFTISRDNAKNTVYLLMISLKPEDTAVYYCAADVEQYYPLLTFDYCGQGTQVTVSS” reads “low polyreactivity”; that for “QVQLVESCGGLVQAGGSLRVSCAASGITFDGYAMGSYRQAPGKERELVAAITRRGGNTYYADSVKGRFTISRDNAKNTVHLQLNSQKPEDTAFYYCNAQVVHYRVSSVITYTIYDYSGQGTQVTVSS”, “high polyreactivity”; that for “QVQLVESCGGLVQAGGSLSLSCAASGRILYYYAMGWYRQAPGKERELVAAITSGGSTYADSVKGRFTISRDNAKNTVYLQMNSLKPEDTAVYYCNADYTVYDTEYDYWGQGTQVTVSS”, “low polyreactivity”.

Turning to “QVQLVESCGLLVQAGGSLRLSCAASGSIIVYNTMRCYRQAPGKERELVAAIYSSGGSTYYADSVKGRFTISRDNAKNTVYLQMNILKPEDTAVYYCAAVNGYQYPPYYYNGYDYWGQGTHVTVSS”, the “polyreactivity (PSR sort gate)” value was “low polyreactivity”. The result for “QVQLVESDGGLDQAGGSLRLSCPASGIIFGYYVMGRYRQAPGKERELVASITSGGSTNYADSVKGRFTISRDNAKNTVYLQMNSLKPEDTAVYYCAAEERTDTIPGWRYPHDYWGQGTQVTVSS” reads “low polyreactivity”; that for “QVQLVESEGGLVQAGGSLRLSCAASGRTYYAMGWYRQAPGKERELVAAISGTGASTYYADSVKGRFTISRDNAKNTVYLQMNSLKPEDTAVYYCAAEWFYYNTQQWFDYWGQGTQVPVSS”, “low polyreactivity”; that for “QVQLVESEGGLVQAGGSLRLTCAASGFIYKGYAMGSYRQAPGKETELVAAISSSGTSTYYADSVKGRFTISRDNAKNTVYLQMNSLKPEDTAVYYCARVSKRTWSGYYYWGQGTQVTVSS”, “high polyreactivity”. For “QVQLVESGAALVQAGGSLRLSCAASGFIIAVYAMGWYRQAPGKERELVAAITRSGGSTYYADSVKGRFTISRDNAKNTFYLQMNSLKPEDSAVYYCAARNTQPASYGYGYWGLGTQVTVSS” the value was “high polyreactivity”. As for “QVQLVESGAALVQAGGSLSLSCAASGLTFYYYAMGWYRQAPGKERELVAAITSGGSTNYADSVKGRFTISRDNAKNTVFLQINSLKPEDTAVYYCAADPRYSFWGMYYWGLGTQVTVSS”, the “polyreactivity (PSR sort gate)” value is given as “low polyreactivity”. “QVQLVESGAGIVQAGGSLRLSCAASGIIFNLYAMGWYRQAPGKERELVASISIGGSTNYADSVKGRFTISRDNAKNTVYLQMNSLKPEDTAVYYCAAALYEATYDANGLDMDYWGQGTQVTVSS”: the “polyreactivity (PSR sort gate)” value is “high polyreactivity”. With “QVQLVESGAGIVQAGGSLRLSCAASGRIFRYNAMGLYRQAPGKERELVAAITWSGVSTYYAHSVKGRFTISRDTAKITVFLQMNSLYPEDTGVYYCNGRRWPAWSSYDYWGQGTQVNVSS”, the “polyreactivity (PSR sort gate)” value is on record as “high polyreactivity”. As for “QVQLVESGAGIVQAGGSLRLSCAASVSTFQSYAMGLYRPAPGKERELFAAISFSGGSTYYADSVKGRFTISRDNAKNTVYLQMNSLKPEDTAVYYCAKRGWVYFHGYDYWGQGTQVTVSS”, the “polyreactivity (PSR sort gate)” value is reported as “low polyreactivity”.

Take “QVQLVESGAGLFQAGGSLRISCAASGLIFDGYAMGWYRQATGKERELVAAITRSGGSTSYADSVKARFTISRDNAKNTVYLHMNSLKPEDTAVYYCAAKVHTFYYHYYSWGQGTQVTVSS”: the “polyreactivity (PSR sort gate)” value was “high polyreactivity”.

“QVQLVESGAGLGQAGVSLRLSCAASGSTFPTYAMGWYRPAPGKERELVAAIDWSDGTTYYADSVKGRFTISRDNANNTVYLQMNSLKPDETAGYYCAASLSLSEYDYWGQATQVTVSS”: the “polyreactivity (PSR sort gate)” value is “low polyreactivity”. Consider “QVQLVESGAGLLQAGGSLRLSCAASGITLRRNTMGWYRQAPGKERELVAAITRSGGSTYYADSVKGRVTISRDNAKNTVYLQINSLKPEVTAVYYCAEGPSYGGPSHVYWRQGTQVTVSS”, for which the “polyreactivity (PSR sort gate)” value was “high polyreactivity”.

Take “QVQLVESGAGLVQAGASLRLSCAASGRIFSRYVMGWYRQAPGKEREFVASITWSGSSTYYADSVKGRFTLSRDNAKNTVYVQMNSLKPEDTAVYYCAALGLLSPSPWGTHIYEYDSWGQGTQVTVSS”: the “polyreactivity (PSR sort gate)” value is given as “low polyreactivity”. Regarding “QVQLVESGAGLVQAGGRIRLSCAASGRTLYGNTMGWYRPAPWKERELVAAINWSGGRTRYADSVKGRFTNSRDNAKNTVYVEMNSVKPEDTAVYYCAATKRANHERFGSWGQGTQVTVSS”, the “polyreactivity (PSR sort gate)” value is “high polyreactivity”.

Consider “QVQLVESGAGLVQAGGRIRLTCAASRSILRGYAMGWYRQAPGKERELVAAITWNGGSTYYADSVKGRFTISRDNANNTVYLHMISLKPEDTAVYYFNRAIGPYSYPDNYWGQGTQVTVSS”, for which the “polyreactivity (PSR sort gate)” value was “high polyreactivity”. Turning to “QVQLVESGAGLVQAGGRLRLSCAASGFTFRAYDMGWSRQAPAKERELVAAINISGGSTYYADSVKGRFTISRDNAKNTVYLQMNSLKPVDTAVYYCAAVPWVGTLYPRVGYWGQGTQGTVSS”, the “polyreactivity (PSR sort gate)” value was “low polyreactivity”. For “QVQLVESGAGLVQAGGRLRLSCAATGLTFYFYVMGWYRQAPGKERELVADISTSDDSTYYADSVKGRFTISRDNAKNTVYLQMNSLKPEDTSVYYCATATRTYSAWYEYDYWGQVTQVTVSS”, the “polyreactivity (PSR sort gate)” value is reported as “low polyreactivity”. On to “QVQLVESGAGLVQAGGSLRLCCAASGFIFYLNTMGWYRQAPGKERELVAGITWRGGTTYYADSVKGRFTISRDNAKNSVYLQMNSLKPEDTAVYYCAARRYSRPYSYGFYYWGQGTLVTVSS”, for which the “polyreactivity (PSR sort gate)” value is “high polyreactivity”.

With “QVQLVESGAGLVQAGGSLRLCCAASGRIFDWYVMGWYRQAPGKEWELVAAINSGVSTKYADSVKGRFTISRDNAKNTVYLQMNSLKPEDTAVYYCAAQSFSDYRRTGRKSSYYYWGQVTQVTVSS”, the “polyreactivity (PSR sort gate)” value is “low polyreactivity”. For “QVQLVESGAGLVQAGGSLRLICAASGLTFIYYAMGWYRQAPGKERELVAAISVSGGSTYYADSVKGRFTISRDNAKNTVYLQMNRLQREDTAVYYCAADWLVHKPRYQYSFDFWGQVTQVTVSS”, the “polyreactivity (PSR sort gate)” value was “low polyreactivity”. As to “QVQLVESGAGLVQAGGSLRLSCAASGFIFRQYAMGWYRQAPGQERELVAAISWSGGSTYYADSVKGRFTISRDNAKNTVYLQKNSLKPEDTAVYYCNVLTPPTDYDYWGQGTQVTVSS”, the “polyreactivity (PSR sort gate)” value is “high polyreactivity”.

On to “QVQLVESGAGLVQAGGSLRLSCAASGFIFVKYAMGWYRQAPGKERELVAAISRSGGRTYYADSVKGRFTISRDNAKNNVYLQMNSLKPEDTAVYYCATDYYEDWRGYEDYWYRPYDYWGQGTQVTVSS”, for which the “polyreactivity (PSR sort gate)” value is on record as “high polyreactivity”.

As for “QVQLVESGAGLVQAGGSLRLSCAASGFIFYYYAMGRYRPAPGKERELVAAIDSSGGDTYFADSVKGRFSISRDHAKNTVYLQMNSLKPEDTAVYYCNARQRLISLYGNRLTYGYWGQGTQVTVSS”, the “polyreactivity (PSR sort gate)” value was “high polyreactivity”. Regarding “QVQLVESGAGLVQAGGSLRLSCAASGFTFDQYAMGWYRPATGKERELVAGISWGGGTTYYADSVKGRFTISRDNAKNTVYLHMNSLKPEDTAVYYCAAVRPGYPYYGSDYWGPGTQVTVSS”, the “polyreactivity (PSR sort gate)” value is “low polyreactivity”. The result for “QVQLVESGAGLVQAGGSLRLSCAASGFTFFGDYAMGWYRQAPGKERELVAAIDWSGGTTYYADSVKGRFTISRDNAKNTVYLQMNSLKPEDTAVYYCARRYYYSYPPQEDDYWGQGTQVTVSS” reads “high polyreactivity”; that for “QVQLVESGAGLVQAGGSLRLSCAASGFTFPYYAMGWYRQAPGKERELVAAINYSGSSTDYADSVKGRFTISRDNAKNTVYLQMNSLKPEDTAVYYCAATPAYYYQAVTEDDYWGQGTHVTVSS”, “high polyreactivity”; that for “QVQLVESGAGLVQAGGSLRLSCAASGFTFSRNAMGWYRPAPGKERELVASISGRGGRTYYADSVKGRFTISRDNAKKTVYLQMNSLKPEATAVYFCAARWRQRKSVRYGQQGYDYWGQGTQVTVSS”, “high polyreactivity”. “QVQLVESGAGLVQAGGSLRLSCAASGFTFYDYAMGWYRQAPGKERELVAAISRGGGSTYYADSVKGRFTISRDNAKNTVYLQMNSLKPEDTAVYYCNAALTRVSRFWGGDYYYWGQGTQVTVSS”: the “polyreactivity (PSR sort gate)” value is listed as “high polyreactivity”.

As for “QVQLVESGAGLVQAGGSLRLSCAASGGTFLYYAMGWYRQAPGKERELVAVINSNGGSTYYADSVKGRFTISRDNAKNTVYLQMNSLKPEDTAVYYCAADYQSYVYIGYGYWGQGTQVTVSS”, the “polyreactivity (PSR sort gate)” value is reported as “low polyreactivity”. As for “QVQLVESGAGLVQAGGSLRLSCAASGIIFDWYTMGWYRQAPGKERELVAAISWRGGRTYYADSVKGRFTISRDNAKNTVYLQMNSLKPEDTAVYYCAAEAPVQPFYVFNTGIYELDYWGQGTQVTVSS”, the “polyreactivity (PSR sort gate)” value is on record as “low polyreactivity”.

For “QVQLVESGAGLVQAGGSLRLSCAASGIISYRNGMGWYRQAPGKERELVASISKRADSTYYADSVKGGFTLSRDNAKNTVYLQMNSLKPEDTAVYYCAANFRDWHRYYPAGYLRRGYWGQGTQVTVSS”, the “polyreactivity (PSR sort gate)” value is “high polyreactivity”. Regarding “QVQLVESGAGLVQAGGSLRLSCAASGNTFYQYAMGWYRQAPGKERELVAAIDWSGGSTYADSVKGRFTISRDNAKNTVYLQMNSLKPEDTAVYYCEKYTYDYWGQGTQVTVSS”, the “polyreactivity (PSR sort gate)” value is “low polyreactivity”.

In the case of “QVQLVESGAGLVQAGGSLRLSCAASGRTFRYSAMGWYRQAPGKERELVAAISSRGNTYYADSVKGRFTISRDNAKNTVYLQMNTLKPEDTAVYYCAAYVYRVQYDFDYWGQGTQVTVSS”, the “polyreactivity (PSR sort gate)” value is given as “high polyreactivity”.
